Experimental data: publication PMC10397247

How the values were obtained:
4H3705-AA = molecular target: T1, 4H3705-AA; assay: two-hybrid library CCmax; conditions: mean of both orientations;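 further: natural log of median RNA to DNA barcode read ratio; higher means stronger binding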
T1 chain: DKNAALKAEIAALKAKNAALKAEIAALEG

4H3020-AA = molecular target: T2, 4H3020-AA; assay: two-hybrid library CCmax; conditions: mean of both orientations;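 further: natural log of median RNA to DNA barcode read ratio; higher means stronger binding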
T2 chain: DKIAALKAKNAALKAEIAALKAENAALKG

4H3651-AA = molecular target: T3, 4H3651-AA; assay: two-hybrid library CCmax; conditions: mean of both orientations;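 further: natural log of median RNA to DNA barcode read ratio; higher means stronger binding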
T3 chain: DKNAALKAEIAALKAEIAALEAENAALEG

4H3782-AA = molecular target: T4, 4H3782-AA; assay: two-hybrid library CCmax; conditions: mean of both orientations;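 further: natural log of median RNA to DNA barcode read ratio; higher means stronger binding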
T4 chain: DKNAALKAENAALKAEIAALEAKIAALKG

4H58-AA = molecular target: T5, 4H58-AA; assay: two-hybrid library CCmax; conditions: mean of both orientations
T5 chain: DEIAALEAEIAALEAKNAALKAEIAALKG

4H3365-AA = molecular target: T6, 4H3365-AA; assay: two-hybrid library CCmax; conditions: mean of both orientations
T6 chain: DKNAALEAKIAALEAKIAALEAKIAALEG

4H486-AA = molecular target: T7, 4H486-AA; assay: two-hybrid library CCmax; conditions: mean of both orientations
T7 chain: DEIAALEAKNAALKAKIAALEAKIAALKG

4H535-AA = molecular target: T8, 4H535-AA; assay: two-hybrid library CCmax; conditions: mean of both orientations
T8 chain: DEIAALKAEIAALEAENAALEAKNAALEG

4H895-AA = molecular target: T9, 4H895-AA; assay: two-hybrid library CCmax; conditions: mean of both orientations
T9 chain: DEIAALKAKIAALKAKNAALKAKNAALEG

4H_BCR = molecular target: T10, 4H_BCR; assay: two-hybrid library CCmax; conditions: mean of both orientations
T10 chain: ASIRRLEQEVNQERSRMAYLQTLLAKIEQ

GCN2_T = assay: two-hybrid library CCmax
4H_APH = molecular target: T11, 4H_APH; assay: two-hybrid library CCmax; conditions: mean of both orientations
T11 chain: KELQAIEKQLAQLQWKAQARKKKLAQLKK

4H465-AA = molecular target: T12, 4H465-AA; assay: two-hybrid library CCmax; conditions: mean of both orientations
T12 chain: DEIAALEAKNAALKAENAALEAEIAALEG

4H355-AA = molecular target: T13, 4H355-AA; assay: two-hybrid library CCmax; conditions: mean of both orientations
T13 chain: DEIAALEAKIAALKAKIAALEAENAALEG

4H_GCN4 = assay: two-hybrid library CCmax; conditions: mean of both orientations
Chain of 4H_GCN4 (chain, as listed by the source): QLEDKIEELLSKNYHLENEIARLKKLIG

4H2898-AA = molecular target: T14, 4H2898-AA; assay: two-hybrid library CCmax
T14 chain: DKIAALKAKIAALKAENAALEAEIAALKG

4H319-bH = molecular target: T15, 4H319-bH; assay: two-hybrid library CCNG1
T15 chain: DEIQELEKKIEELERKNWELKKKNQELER

4H40-bH = molecular target: T16, 4H40-bH; assay: two-hybrid library CCNG1
T16 chain: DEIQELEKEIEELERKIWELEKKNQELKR

4H2839-bH = molecular target: T17, 4H2839-bH; assay: two-hybrid library CCNG1
T17 chain: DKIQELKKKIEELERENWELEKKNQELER

4H2588-bH = molecular target: T18, 4H2588-bH; assay: two-hybrid library CCNG1
T18 chain: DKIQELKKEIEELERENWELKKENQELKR

4H741-bH = molecular target: T19, 4H741-bH; assay: two-hybrid library CCNG1
T19 chain: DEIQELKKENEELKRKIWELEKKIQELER

4H2692-bH = molecular target: T20, 4H2692-bH; assay: two-hybrid library CCNG1
T20 chain: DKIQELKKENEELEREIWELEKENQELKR

4H2585-bH = molecular target: T21, 4H2585-bH; assay: two-hybrid library CCNG1
T21 chain: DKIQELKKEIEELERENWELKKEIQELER

4H2717-bH = molecular target: T22, 4H2717-bH; assay: two-hybrid library CCNG1
T22 chain: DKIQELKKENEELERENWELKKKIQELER

4H3057-bH = molecular target: T23, 4H3057-bH; assay: two-hybrid library CCNG1
T23 chain: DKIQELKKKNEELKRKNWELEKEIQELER

4H492-bH = molecular target: T24, 4H492-bH; assay: two-hybrid library CCNG1
T24 chain: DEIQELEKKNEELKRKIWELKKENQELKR

4H3277-bH = molecular target: T25, 4H3277-bH; assay: two-hybrid library CCNG1
T25 chain: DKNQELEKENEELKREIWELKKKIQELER

4H348-bH = molecular target: T26, 4H348-bH; assay: two-hybrid library CCNG1
T26 chain: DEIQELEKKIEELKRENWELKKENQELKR

4H477-bH = molecular target: T27, 4H477-bH; assay: two-hybrid library CCNG1
T27 chain: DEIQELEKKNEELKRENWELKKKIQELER

4H2915-bH = molecular target: T28, 4H2915-bH; assay: two-hybrid library CCNG1
T28 chain: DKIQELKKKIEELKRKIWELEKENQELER

DKIAALKAKIAALKAENAALEAEIAALKG [4H2898-AA]
interaction score (4H3705-AA): 1.04 | interaction score (4H3020-AA): -0.301 | interaction score (4H3651-AA): -0.71 | interaction score (4H3782-AA): -1.39 | interaction score (4H58-AA): 2.06 | interaction score (4H3365-AA): -1.78 | interaction score (4H486-AA): 1.49 | interaction score (4H535-AA): 0.142 | interaction score (4H895-AA): -0.62 | interaction score (4H_BCR): 0.271 | interaction score (GCN2_T): -0.0478 | interaction score (4H_APH): -1.54 | interaction score (4H465-AA): -1.49 | interaction score (4H355-AA): 0.0321 | interaction score (4H_GCN4): -0.672 | interaction score (4H2898-AA): 0.588

DKIQELEKKNEELKREIWELEKKNQELER [4H2503-bH]
interaction score (4H319-bH): -0.903 | interaction score (4H40-bH): -2.05 | interaction score (4H2839-bH): 0.527 | interaction score (4H2588-bH): -0.858 | interaction score (4H741-bH): 0.303 | interaction score (4H2692-bH): 0.839 | interaction score (4H2585-bH): -1.1 | interaction score (4H2717-bH): -0.106 | interaction score (4H3057-bH): 0.435 | interaction score (4H492-bH): -0.241 | interaction score (4H3277-bH): -0.644 | interaction score (4H348-bH): -0.941 | interaction score (4H477-bH): -0.993 | interaction score (4H2915-bH): 0.0935
